Experimental data reported in the RNAGym collection of RNA variant scans (doi:10.1073/pnas.2313332121).

B1: TPR t1 (parent)
chain: GACCAAUCUGCCCUCAGAGCUCGAGAACAUCUUCGGAUGCAGAGGAGGCAGGCUUCGGUGGCGCGAUAGCGCCAACGUCCUCAACCUCCAAUGCAUCCCACCACAUGAUGAUGCCUGAAGAGCCUUGGUUUUUUG

Variants of: B1
Assay: polymerase ribozyme fitness, log enrichment relative to wild type (log ratio); higher = more active; in vitro selection for triplet polymerase activity
Summary of the method: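 The heterodimeric triplet polymerase ribozyme's subunits were each mutagenized into PCR-built libraries and transcribed. Every library was selected once, in triplicate, by annealing with a biotinylated primer, the partner subunit and triplets, incubating frozen at −7 °C, gel-excising extended constructs, capturing on streptavidin beads and running RT-PCR. Input and output libraries were Illumina-sequenced, with genotypes kept only at ≥10 input reads and ≥1 read per output. Fitness, from inverse-variance-weighted replicate averages, is the base-2 logarithm of genotype enrichment over wild-type enrichment.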

Variant | polymerase ribozyme fitness (log ratio)
C49U C94U | -1.08
C49G U81C | -3.21
C49G C101U U131C | -0.189
C49U G71A G117C | -6.24
C49U A119U G122U | -1.11
C49G G57C G58C G63U | -3.06
C49U U92A | -3.99
C49G G61A A95C | -1.32
C49U G60C G127A | -2.38
C49G C124A | 1.39
C49U A121U | 1.09
C49G G52U C56G C72G | -7.2
C49U G117U | -2.67
C49U U96A U106A | -1.67
C49G U116G | -2.61
C49G G63A U87A | -2.53
C49G U78G | -0.998
C49U C73U A74U | -0.941
C49U C94U A111U | -5.05
C49U G135U | -1.61
C49U A50G U78C C115A | -1.98
C49G G60U C73U G128U | -3.07
C49G G110A A121C | -1.76
C49G C89A A111C A118C U129A U134G | -5.22

Variant | polymerase ribozyme fitness (log ratio)
C49U C72G G113U G117U | -6.76
C49U G93A G110A | -2.9
C49U G93A G122A | -1.37
C49U G52C G63U C124A | -0.717
C49U G52C U55C | -1.55
C49U | -0.473
C49U G61U U78G | -0.458
C49U C85G | -2.2
C49U G63U | -2
C49G G110U | -2.51
C49U G77C C124G U125C | -0.664
C49U C115U | -1.16
C49U C115G | -2.23
C49U A50C G69A G135U | -3.24
C49G G57U A83U G110A A121G | -1.99
C49U C102A | -3.24
C49U G63A U92G A121G | -3.84
C49U U54C G117U G128A | -5.68
C49G G93U C94A | -3.18
C49U C72U A75U U106G | -3.16
C49U A91U C115A | -2.58
C49U U116G | -2.41
C49U U55G G63A | -1.98
C49U G52A C56G | -2.31

Variant | polymerase ribozyme fitness (log ratio)
C49U G51A G63C | -3
C49G G60U U96G | -0.746
C49G G71A U112A | -1.11
C49G G71A | -0.461
C49G G71U | -1.7
C49U U109G | -5.61
C49U G110C | -5.17
C49U C56A U109A G117U | -5.98
C49G G58C C79A | -5.19
C49U G57C | -0.696
C49U C73A U81G | -2.45
C49U G52A G71C | -5.43
C49G G77U A95G | -1.23
C49G G120A | 0.175
C49G G120C | 1.11
C49G U55G C89A U92C | -5.1
C49G G52A C70A U96C | -4.29
C49U C80A U81C U106A U112A | -4.56
C49G U92A C123G | -3.27
C49U A50G C70A | -4.55
C49U G63A C80U G120A | -5.11
C49U G63C G93C C124U | -0.998
C49G G69U C94U C114A G120A | -1.33
C49G G63C A111G G120A | -2.1

Variant | polymerase ribozyme fitness (log ratio)
C49U G61A C79U C97G | -5.31
C49U U78G U96A G113A C115A | -5.23
C49U C89G | -1.74
C49U C56A G120C | 0.0733
C49U A95C | -1
C49G C101G | -1.92
C49U C114A | -2.34
C49U C114U | -2.25
C49U C114G | -3.71
C49U C101G | -2.04
C49U U106A U116G | -4.54
C49U C124A | 1.2
C49G C97G | -4.99
C49U U126A | -1.95
C49U C123U | 1.01
C49G U112G | 0.00648
C49G U112A | 0.92
C49U A119U | -0.961
C49U G61A | -0.0564
C49U G61C | -1.88
C49U G77U | 0.0294
C49U G77A | 0.352
C49U U92G A121G | -1.61
C49G U78C A95C | -2.13

Variant | polymerase ribozyme fitness (log ratio)
C49U A84C | -1.9
C49G U54A | 0.0212
C49U C73A C102U | -2.56
C49U C104U | -0.182
C49U A95U U130G | -1.71
C49U G93A C101U G127C | -2.96
C49G G122U C124G | -1.12
C49U C72G | -0.927
C49G C85U G117C | -3.67
C49U U59G | -1.24
C49G C88A U96G U125G | -2.28
C49U G58C A111C | -0.939
C49U G51U C62U C80A | -3.6
C49G G52A C53U A84G C85U C94U | -1.34
C49G G71A C124G | 0.642
C49U G77U G113U G122U C124A | -3.66
C49G U112G U129G | -0.483
C49G G63U U96G | -2.68
C49U G57U G110C | -4.9
C49G G61A U81C G120C | -3.67
C49U C98U U125G | -2.62
C49U A50U | -3.59
C49U C73A A74U C102U | -3.4
C49U C53A C101A G120A | -1.13

Variant | polymerase ribozyme fitness (log ratio)
C49U G63C C85U | -1.05
C49U C73U U81G U96C | -4.51
C49U G107A | -3.94
C49U C62U | -1.19
C49G U54C G63C C88G U106G | -5.67
C49U C53A | -0.289
C49G C123A | -0.0129
C49G C123G | 1.3
C49U C70U U130C | -0.66
C49U U55A C62U C99U A111U | -7.19
C49U A68G | -4.08
C49U G127A | -1.64
C49U C97G | -5.89
C49U G60U U106A G127U U130G G135U | -1.71
C49G G122A | -0.99
C49U G58U C62G | -1.16
C49G G93C | -1.06
C49G G93U | -1.49
C49U C86U C88G C115G | -4.09
C49U C56A C70U C76A U132A | -3.06
C49U G93A C97U U116C | -3.84
C49U U106A | -0.703
C49G G69C U125G | -3.42
C49U G58C G60U C114U U129A | -5.08

Variant | polymerase ribozyme fitness (log ratio)
C49U C72G C97U U106A | -0.73
C49G G57U A119G U133G | -0.101
C49U G51U U78G C79G U109G C124G | -6.06
C49U A66G | -1.95
C49U C56A | -1
C49U G77A C123G | 1.03
C49U C80U C114U G122U | -5.64
C49U C98A | -5.99
C49U G58U C62G A119U C124U | -1.37
C49G G77U U78A C85A | -1.63
C49U A74C G122A | -1.62
C49U G113C | -3.45
C49G G51A G61C C94U | -3.22
C49G G113U | -2.52
C49G G113A | -1.08
C49U G113U C114U | -2.07
C49U A95G U112A | 0.0263
C49U C70A | -2.47
C49U C82G U96C C97U C115U U116A | -6.51
C49U U81G | -3.78
C49U G57A U96A | -3.31
C49G G52C | -0.352
C49G C99A G120C G122U | -6.79
